Data set [1] can be described thus: Allometric extrapolation of clearance to humans. In kind it is in vivo. To be noted: 70 Kg human. The text has this:
The data were plotted using a double 4-parameter exponential decay.

Data set [2] can be described thus: Plasma clearance in mice of 125I-labeled protein. To be noted: for Clearance (%) alpha phase: fraction of label cleared through alpha phase; for Clearance (%) beta phase: fraction of label cleared through beta phase; for T1/2 alpha / T1/2 beta: plasma clearance, tail vein injection.
Description: (§1) The protein to be tested is labeled with iodine (^125I) using the iodogen method (Pierce). The reaction tube is rinsed with reaction buffer (25 mM Tris, 0.4 M NaCl, pH 7.5). The tube is emptied and then replaced with 0.1 ml of reaction buffer and 12 μl of carrier free iodine-126, about 1.6 mCi. After six minutes, the activated iodine is transferred to a tube containing the protein to be tested. After nine minutes, the reaction is terminated with 25 μl of saturated tyrosine solution. The reaction can be purified on a 5 ml D-salt polyacrylamide 6000 column in Tris/NaCl. HSA can be used to minimize sticking to the gel.
(§2) A sufficient number of mice (about 36) are obtained. The weight of each animal is recorded. In the case of mice, the animals are injected in the tail vein with about 5 μg of the protein to be tested. Samples are recovered at each time point per animal, with four animals per time point, at approximately 0, 7, 15, 30, and 90 minutes, 4 hours, 8 hours, 16 hours, and 24 hours post injection. Samples (about 0.5 ml) are collected into anti-coagulant (0.02 ml EDTA). Cells are spun down and separated from plasma/serum. Samples can be analyzed by radiation counting and SEC peptide column on HPLC with inline radiation detection.
(§3) Data can be fit to a bi-exponential (equation 2) or a tri-exponential (equation 3) decay curve describing “fast”, “slow”, and “slowest” phases of in vivo clearance: y=Ae^−αt+Be^−βt Equation 2 y=Ae^−αt+Be^−βt+Ce^−γt Equation 3 Where: • y=Amount of label remaining in plasma at time=t post-administration • A=Total label in “fast” clearance phase • B=Total label in “slow” clearance phase • C=Total label in “slowest” clearance phase • α=“Fast” clearance phase decay constant • β=“Slow” clearance phase decay constant • γ=“Slowest” clearance phase decay constant • t=Time post administration
(§4) The α, β, and γ phase decay constants can be converted to half-lives for their respective phases as: α Phase Half-life=0.69 (1/α) β Phase Half-life=0.69 (1/β) γ Phase Half-life=0.69 (1/γ)
(§5) In the case where the data are fit using the bi-exponential equation, the percentages of the total label cleared from in vivo circulation through the α and β phases are calculated as: % α Phase=[A/(A+B)]×100 % β Phase=[B/(A+B)]×100
(§6) In the case where the data are fit using the tri-exponential equation, the percentages of the total label cleared from in vivo circulation through the α and β phases are calculated as: % α Phase=[A/(A+B+C)]×100 % β Phase=[B/(A+B+C)]×100 % γ Phase=[C/(A+B+C)]×100
Data set [3] in a line: Plasma clearance in rabbit of 125I-labeled protein. To be noted: for Clearance (%) alpha phase: fraction cleared through alpha phase; for Clearance (%) beta phase: fraction cleared through beta phase; for Clearance (%) gamma phase: fraction cleared through gamma phase; for T1/2 alpha / T1/2 beta / T1/2 gamma: plasma clearance, ear vein injection.
Description: (§7) The following methods can be used to evaluate the pharmacokinetics (PK) of proteins such as poly-PEGylated proteins in animals, e.g., mice and rabbits. The protein to be tested is labeled with iodine (^125I) using the iodogen method (Pierce). The reaction tube is rinsed with reaction buffer (25 mM Tris, 0.4 M NaCl, pH 7.5). The tube is emptied and then replaced with 0.1 ml of reaction buffer and 12 μl of carrier free iodine-126, about 1.6 mCi. After six minutes, the activated iodine is transferred to a tube containing the protein to be tested. After nine minutes, the reaction is terminated with 25 μl of saturated tyrosine solution. The reaction can be purified on a 5 ml D-salt polyacrylamide 6000 column in Tris/NaCl. HSA can be used to minimize sticking to the gel.
(§8) For rabbits, the material is injected into the ear vein. Samples can be collected at 0, 7, 15, 30, 90 minutes, 4, 8, 16, 24, 48, 72, 96, 120, and 144 hours post-injection. Samples can be collected and analyzed as for mice.
as §3, §4, §5, §6
A short description of data set [4]: Solubility upon dilution in Hepes buffer for the PEGylation reaction. The format is physicochemical. Particulars: stock ~10 mg/ml diluted 1:1 with 0.2M Hepes, pH 7.8-8.5. Here is the method:
• mPEG-SPA, MW 5,000 Da, NEKTAR Therapeutics, cat. no.: 2M4M0H01 (succinimidyl ester of methoxy-capped polyethylene glycol propionic acid) • DX-88 API, MW 7,054 Da, ˜10 mg/ml in PBS, pH 7.0 • DX-890 API, MW 6,231 Da, ˜10 mg/ml in 10 mM NaAc, pH 3.0 • DX-1000 API, MW 7,167 Da, ˜10 mg/ml in PBS, pH 7.0 • 0.2-0.3M Hepes, pH 7.8-8.5 • 1M Tris, pH8.0 • 1N HCl PEGylation Reaction I: • 1) Calculate the amount of PEG needed for reacting the Kunitz domain polypeptide at approximately 10:1 molar ratio of PEG:reactive group. For example, DX-890 has 5 total reactive groups, so a 50:1 molar ratio of PEG:DX-890 is used. Depending upon the Kunitz domain polypeptide and/or reaction conditions, a ratio of 25:1 to 50:1 is typically used. For example, for PEGylating 10 mg of DX-890 (MW 6,231 Da) at a 50:1 molar ratio of PEG:peptide, 401 mg of PEG (MW 5,000 Da) would be used. • 2) Just prior to reacting the Kunitz domain polypeptide with the PEG, dilute the required volume of Kunitz domain polypeptide stock 1:1 with 0.2M Hepes, pH 7.8-8.5 buffer. The peptide stock is typically ˜10.0 mg/ml. Therefore upon dilution, the concentration of the Kunitz domain polypeptide is ˜5.0 mg/ml in 0.1M Hepes, pH 7.8-8.5 buffer. […] Reaction times can be chosen to minimize precipitation. • 3) Immediately add the 1:1 diluted Kunitz domain polypeptide solution directly to the PEG powder and quickly dissolve the PEG by vortexing. Once completely dissolved, cap the tube, wrap in foil and allow to react while slowly rocking/tumbling for 2.5-3 hours at 2-8° C. to 25° C. • 4) Quench the reaction by adding 1/9th. volume of 1 M Tris, pH 8.0 for 30-60 minutes at 2-8° C. to 25° C. while slowly rocking/tumbling. • 5) Carefully and slowly adjust the pH of the quench reaction mixture to ˜ pH 7 with small additions of 1N HCl while mixing. • 6) The neutralized reaction can be stored at 2-8° C. or frozen at −20° C. to −80° C. until purification. The direct addition of the Kunitz domain polypeptide solution to PEG powder can help simplify the number of steps in the reaction process and reduce hydrolysis prior to reaction.

Data set [5] can be described thus: Acute and subchronic 4-week studies of aerosolised DX-890 in cynomolgus monkeys. The format is in vivo.
Data set [6] can be described thus: Clinical studies in healthy human volunteers, inhalation at 8 increasing doses. In kind it is in vivo. To be noted: inhaled mass up to about 72 mg.
The nature of data set [7]: 14-day daily nebulization in 12 healthy volunteers. The format is in vivo, human. Here is the method: It is possible, for example, to deliver DX-890 to the lung by nebulization. DX-890 activity was detected in broncho-alveolar lavages of volunteer inhaling nebulized DX-890. 12 healthy volunteers received during 14 days a single daily dose of DX-890, by nebulization lasting 5 or 20 minutes, corresponding to estimated inhaled mass of 3.75 or 15 mg respectively. […] No clinical or biological abnormalities were observed.

Data set [8] can be described thus: Resistance to oxidative and proteolytic inactivation. The format is physicochemical. The source says: DX-890 is derived from the second Kunitz-type domain of inter-α-inhibitor protein (ITI-D2) and can be produced by fermentation in Pichia pastoris. It includes 56 amino acids, with a predicted MW of 6,237 Daltons.
The conditions of data set [9]: mouse, in vivo.
Description: as §1, §2, §3, §4, §5, §6
For data set [10] the following is noted: rabbit, in vivo.
Description: as §7, §8, §3, §4, §5, §6
Data set [11] addresses T1, hNE of sputum from cystic fibrosis children (Homo sapiens, UniProt P08246).
T1 construct: hNE of sputum from cystic fibrosis children; from tissue; host or cells: sputum from cystic fibrosis children
T1 sequence (P08246 30-247 limits assumed): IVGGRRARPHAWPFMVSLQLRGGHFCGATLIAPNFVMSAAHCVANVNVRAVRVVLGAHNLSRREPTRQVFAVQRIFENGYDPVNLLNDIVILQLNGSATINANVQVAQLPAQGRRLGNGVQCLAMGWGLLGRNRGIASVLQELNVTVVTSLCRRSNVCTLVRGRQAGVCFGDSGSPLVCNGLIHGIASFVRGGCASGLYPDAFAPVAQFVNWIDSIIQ
To be noted: in vitro, ex vivo and in vivo pharmacological studies (Delacourt et al. 2002); cited from earlier work.

The mark [12] stands for this setting: allometric extrapolation from mice and rabbits.
Where [13] appears, read: allometric extrapolation, restated in days.
Where [14] appears, read: 12 healthy volunteers, 14 days single daily dose, nebulization, inhaled mass 3.75 or 15 mg.

Read-outs that look alike come from different tables or passages of the source. Where no end group is shown, it is not given here.

With “4 × PEG5-DX-1000: DX-1000 with four attached 5 kDa PEG moieties (4×5 kDa PEG/peptide) (MHSFCAFKAETGPCRARFDRWFFNIFTRQCEEFIYGGCEGNQNRFESLEECKKMCTRD; not fully specified; cysteine pairing not given here; also: four attached 5 kDa PEG moieties (4×5 kDa PEG/peptide))”, in [1] (setting [12]), the “Extrapolated long half life clearance phase” value is 210 h. The “Extrapolated long half life clearance phase” value in [1] (setting [13]) is “about 9 days”. Further, in [2], the “Clearance (%) alpha phase” value was determined as 38%, the “Clearance (%) beta phase” value is listed as 62%, the “T1/2 alpha” value was found to be 18 min and the “T1/2 beta” value was determined as 12.5 h. Further, in data set [3], the “Clearance (%) alpha phase” value amounted to 34%, the “Clearance (%) beta phase” value stood at 32%, the “Clearance (%) gamma phase” value is on record as 34% and the “T1/2 alpha” value turned out to be 1.9 min. Also, in data set [3], the “T1/2 beta” value was found to be 3 h and the “T1/2 gamma” value was found to be 69.3 h.
As for “5 × PEG5-DX-890: modified DX-890 with five attached 5 kDa PEG moieties (mPEG-SPA) (EACNLPIVRGPCIAFFPRWAFDAVKGKCVLFPYGGCQGNGNKFYSEKECREYCGVP; not fully specified; cysteine pairing not given here; also: five attached 5 kDa PEG moieties (mPEG-SPA))”, in data set [1] (setting [12]), the “Extrapolated long half life clearance phase” value was 330 h. In data set [1] (setting [13]), the “Extrapolated long half life clearance phase” value is recorded as “about 14 days”. Also, in data set [2], the “Clearance (%) alpha phase” value amounted to 33%, the “Clearance (%) beta phase” value is 67%, the “T1/2 alpha” value was 66 min and the “T1/2 beta” value was 20.2 h. In data set [3], the “Clearance (%) alpha phase” value worked out at 28%, the “Clearance (%) beta phase” value is recorded as 34%, the “Clearance (%) gamma phase” value stood at 38% and the “T1/2 alpha” value was found to be 2.8 min. Moreover, in data set [3], the “T1/2 beta” value is 4.5 h and the “T1/2 gamma” value turned out to be 97.6 h.
With “DX-88: a kallikrein inhibitor, a Kunitz domain with three available lysines (SEQ ID NO:24) (EAMHSFCAFKADDGPCRAAHPRWFFNIFTRQCEEFIYGGCEGNQNRFESLEECKKMCTRD; Synthetically generated peptide)”, the Solubility upon dilution entry in data set [4] is on record as “relatively stable in terms of solubility upon dilution”.
For “DX-890: 56-amino-acid Kunitz domain (SEQ ID NO:23) derived from ITI-D2; inhibitor of human neutrophil elastase (EACNLPIVRGPCIAFFPRWAFDAVKGKCVLFPYGGCQGNGNKFYSEKECREYCGVP; Synthetically generated peptide)”, in data set [1] (setting [12]), the “Extrapolated long half life clearance phase” value is 8.4 h. In data set [5], the “Clinical or biological toxicity, histopathological lesions” value was “no signs of clinical or biological toxicity”. For the same substance, the “Safety of administration by inhalation” value in [6] is “safe”. In data set [7] (setting [14]), the Adverse events result is “no significant adverse event” and the Tolerability result is recorded as “excellent”. In addition, in data set [7] (volunteer inhaling nebulized DX-890), the “DX-890 activity in broncho-alveolar lavages” value is “detected”. Also, the Solubility upon dilution result in data set [4] is “may precipitate over time”. In addition, the “Resistance to oxidative and proteolytic inactivation” value in data set [8] is “resistant to oxidative and proteolytic inactivation”. In data set [9], the “T1/2 alpha” value is 1.3 min and the “T1/2 beta” value amounted to 59.2 min. Also, in data set [10], the “T1/2 alpha” value was 1.7 min and the “T1/2 beta” value is 3.4 h. Further, in data set [11], the “Effect against lesions induced by hNE of sputum from cystic fibrosis children” value was “protective effect”. Moreover, in data set [2], the “Clearance (%) alpha phase” value is given as 79% and the “Clearance (%) beta phase” value was found to be 21%. Moreover, in data set [3], the “Clearance (%) alpha phase” value is recorded as 83% and the “Clearance (%) beta phase” value is given as 17%.
On to “DX-1000: a human plasmin inhibitor, a Kunitz domain with three available lysines (SEQ ID NO:25) (EAMHSFCAFKAETGPCRARFDRWFFNIFTRQCEEFIYGGCEGNQNRFESLEECKKMCTRD; Synthetically generated peptide)”, for which, in data set [1] (setting [12]), the “Extrapolated long half life clearance phase” value was 1.7 h. In addition, the Solubility upon dilution result in data set [4] is on record as “relatively stable in terms of solubility upon dilution”. Besides, in data set [2], the “Clearance (%) alpha phase” value is recorded as 87%, the “Clearance (%) beta phase” value is given as 13%, the “T1/2 alpha” value worked out at 1.5 min and the “T1/2 beta” value came out at 0.448 h. In addition, in [3], the “Clearance (%) alpha phase” value stood at 85%, the “Clearance (%) beta phase” value came out at 15%, the “T1/2 alpha” value was 0.9 min and the “T1/2 beta” value was determined as 1 h.

The values above are taken from patent US7550427B2, “Poly-pegylated protease inhibitors” (Dyax Corp., priority 2003, dated 2009).
